From patent publication US20180244725

Test system: T1, R5 peptide
T1 sequence: SSKKSGSYSGSKGSKRRIL

## JMJD6 (Auxenochlorella protothecoides)
  enzymatic modification of R5 (Hydroxylation): resulted in no modifications

## JMJD6 (Nannochloropsos gaditana)
  enzymatic modification of R5 (Hydroxylation): resulted in no modifications

## Protein Kinase A (PKA) (NEB P6000S)
  phosphorylation sites on R5 (LC-MS/MS): primary phosphorylation at Ser11, with very low levels of phosphorylation at Ser4, Ser7, and Ser1.6

## THAOC_04424
  enzymatic modification of R5 (Hydroxylation): resulted in no modifications

## LIPT1
  enzymatic modification of R5 (Lipidation): resulted in no modifications

## THAOC_27572
  enzymatic modification of R5 (Hydroxylation): resulted in no modifications

## THAOC_24272
  methylation of R5 (LC-MS, LC-MS/MS): the methylation occurs on all four lysine with no discernable preference or pattern

## Tyrosinase from mushrooms (Sigma T3824)
  oxidation and polymerization of R5 (absorbance at 350 nm, SDS-PAGE): A time course was generated showing the production of oxidized R5 (FIGS. 6B-6C) and the subsequent spontaneous formation of R5 polymers

## THAOC_37500
  methylation of R5 (LC-MS time course): A time course showing the incorporation of zero to 16 methyl groups into R5
